Assay results taken from US20180312587A1 (ADURO BIOTECH HOLDINGS EUROPE B V, published 2018).

Experiments:
Test in all cases: CELISA, CHO-K1 transfectants, domain exchange study
human SIRPα variant 1 = molecular target: T1, human SIRPα variant 1 (human, UniProt P78324 31-504)
T1 construct: full length ORF on transfected CHO-K1 or HEK293 cells; entry includes the signal peptide; also called hSIRPαV1; SIRPαV1
Description: (§1) Based on the fold of SIRPα, the extracellular region can be subdivided into three separate domains: the Ig-like (immunoglobulin-like) V-type (IgV), Ig-like C1-type (IgC1), and Ig-like C2-type (IgC2) domain. The IgV domain is also known as the ligand-binding N-terminal domain of SIRPα (which binds to CD47). The human SIRPαV1/β1 mutants were designed on the basis of the full length hSIRPαV1 sequence (SEQ ID NO: 33) and each individual Ig-like domain was substituted for the equivalent domain of human SIRPβ1 (SEQ ID NO: 37). The cDNAs encoding the constructs, hSIRPα-VβC1αC2α (SEQ ID NO: 55), hSIRPα-VαC1βC2α (SEQ ID NO: 57), and hSIRPα-VaC1αC2β (SEQ ID NO: 59) were synthesized (GeneArt) and subcloned into the pCI-neo vector. Binding of hSIRPα.50A to the exchange mutants was tested using CELISA. To this end, CHO-K1 cells were transiently transfected, using Lipofectamine 2000, with the pCI-neo vectors encoding hSIRPαV1, hSIRPαV2, hSIRPβ1, hSIRPα-VβC1αC2α, hSIRPα-VαC1βC2α, and hSIRPα-VαC1αC2β, respectively. The transfected cells were cultured at 37° C., 5% CO₂ and 95% humidity in medium (DMEM-F12 (Gibco) with 5% New Born Calf serum (Biowest) and Pen/Strep (Gibco)) until confluent. Subsequently, cells were trypsinized and seeded in 96-well flat-bottom tissue culture plates and cultured at 37° C., 5% CO₂ and 95% humidity in culture medium until confluent. Then, culture medium was removed and cells were incubated for 1 hour at 37° C., 5% CO₂ and 95% humidity with hSIRPα.50A and anti-hSIRPα clone SE5A5 antibodies. Next, cells were washed with PBS-T and incubated for 1 hour at 37° C., 5% CO₂ and 95% humidity with goat-anti-mouse IgG-HRP conjugate (Southern Biotech). After that, cells were washed three times with PBS-T and anti-hSIRPα immunoreactivity was visualized with TMB Stabilized Chromogen (Invitrogen). Reactions were stopped with 0.5 M H₂SO₄ and absorbances were read at 450 and 610 nm.

human SIRPα variant 2 = molecular target: T2, human SIRPα variant 2 (human, UniProt P78324 31-504)
T2 construct: full length ORF on transfected CHO-K1 cells; also called hSIRPαV2; SIRPαV2
Description: as §1

hSIRPα-VαC1βC2α = molecular target: T3, hSIRPα-VαC1βC2α (human, UniProt P78324 31-504)
T3 construct: domain exchange mutant
T3 chain: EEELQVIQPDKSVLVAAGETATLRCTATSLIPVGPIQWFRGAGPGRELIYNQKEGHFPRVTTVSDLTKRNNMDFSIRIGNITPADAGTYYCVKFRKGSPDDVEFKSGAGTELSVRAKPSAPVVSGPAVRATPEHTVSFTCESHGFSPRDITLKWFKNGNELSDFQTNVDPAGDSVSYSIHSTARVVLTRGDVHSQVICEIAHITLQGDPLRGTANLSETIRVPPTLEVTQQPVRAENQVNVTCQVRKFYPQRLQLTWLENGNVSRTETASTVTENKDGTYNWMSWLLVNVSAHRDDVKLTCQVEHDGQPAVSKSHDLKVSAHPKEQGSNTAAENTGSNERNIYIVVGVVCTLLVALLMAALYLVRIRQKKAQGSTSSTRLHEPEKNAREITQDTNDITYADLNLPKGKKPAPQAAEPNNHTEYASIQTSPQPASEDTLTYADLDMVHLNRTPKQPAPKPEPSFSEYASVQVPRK
Description: as §1

hSIRPα-VαC1αC2β = molecular target: T4, hSIRPα-VαC1αC2β (human, UniProt P78324 31-504)
T4 construct: domain exchange mutant
T4 chain: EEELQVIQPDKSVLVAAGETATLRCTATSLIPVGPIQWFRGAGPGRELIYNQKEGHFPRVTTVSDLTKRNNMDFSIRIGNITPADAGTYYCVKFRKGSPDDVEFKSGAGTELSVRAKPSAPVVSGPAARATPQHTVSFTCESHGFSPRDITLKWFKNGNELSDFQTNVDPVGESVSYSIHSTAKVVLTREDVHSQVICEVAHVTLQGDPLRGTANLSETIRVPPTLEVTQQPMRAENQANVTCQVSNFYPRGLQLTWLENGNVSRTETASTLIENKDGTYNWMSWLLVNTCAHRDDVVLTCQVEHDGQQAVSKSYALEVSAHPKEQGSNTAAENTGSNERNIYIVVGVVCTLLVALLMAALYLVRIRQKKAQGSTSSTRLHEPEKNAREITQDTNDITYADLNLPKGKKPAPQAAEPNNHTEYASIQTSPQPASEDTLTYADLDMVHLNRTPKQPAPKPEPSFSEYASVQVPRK
Description: as §1

B1: hSIRPα.50A (antibody, V domains shown)
VH: QVQLQQSGPELVKPGASVRISCKASGFTFTNYYIHWVKQRPGQGLEWIGWIYPGNVNTKYNEKFKAKATLTADKSSTTAYMQLSSLASEDSAVYFCARPTIIATDFDVWGAGTTVTVSS
VL: DIVMTQSHKFMSTSVGDRVNITCKASQGVGTAVGWYQQKPGQSPRLLIYWASTRHTGVPDRFTGSGSGTDFSLAISNVQSEDLADYFCQQYSTYPFTFGGGTNLEIK
notes: light chain constant domain not tied; also called mouse hSIRPα.50A; hSIRPα.50A.mIgG1
EC50 (human SIRPα variant 1): 0.321 nM
EC50 (human SIRPα variant 2): 0.215 nM
EC50 (hSIRPα-VαC1βC2α): 0.345 nM
EC50 (hSIRPα-VαC1αC2β): 0.408 nM
